Values quoted from earlier work, collected in paper PMC12860966.

Biological target: MMP-9 (Homo sapiens) (UniProt P14780)
UniProt P14780, sequence (P14780 94-707): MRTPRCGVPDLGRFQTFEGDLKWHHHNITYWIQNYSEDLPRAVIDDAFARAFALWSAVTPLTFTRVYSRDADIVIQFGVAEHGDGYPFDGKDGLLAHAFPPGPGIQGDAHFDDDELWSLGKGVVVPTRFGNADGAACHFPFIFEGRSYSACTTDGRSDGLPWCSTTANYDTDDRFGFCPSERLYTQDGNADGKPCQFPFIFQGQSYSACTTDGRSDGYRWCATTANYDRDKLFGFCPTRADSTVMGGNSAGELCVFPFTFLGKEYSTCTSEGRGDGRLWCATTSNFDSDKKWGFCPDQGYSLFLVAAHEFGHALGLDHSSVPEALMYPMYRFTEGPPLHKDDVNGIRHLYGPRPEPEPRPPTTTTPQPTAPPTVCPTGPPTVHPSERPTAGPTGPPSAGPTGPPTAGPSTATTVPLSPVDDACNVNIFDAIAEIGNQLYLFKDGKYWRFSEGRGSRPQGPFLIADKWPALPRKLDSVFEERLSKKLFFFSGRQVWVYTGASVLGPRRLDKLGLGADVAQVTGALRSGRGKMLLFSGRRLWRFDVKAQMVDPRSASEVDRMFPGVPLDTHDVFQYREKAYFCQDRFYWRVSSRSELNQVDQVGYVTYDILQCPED

Ki: 3.36 nM
Substance: TIMP-1 (from UniProt P01033)
